From IntAct's records for PubMed 23135401

What was measured:
pcd15_mouse Pcdh15 = pcd15_mouse Pcdh15 (UniProt Q99PJ1)
Cdh23, Q99PF4-1 [1] = target: Cdh23, Q99PF4-1
Cdh23, Q99PF4-1 [2] = target: Cdh23, Q99PF4-1; remark: listed apart in the source

Chain of Cdh23, Q99PF4-1 (Q99PF4 whole entry): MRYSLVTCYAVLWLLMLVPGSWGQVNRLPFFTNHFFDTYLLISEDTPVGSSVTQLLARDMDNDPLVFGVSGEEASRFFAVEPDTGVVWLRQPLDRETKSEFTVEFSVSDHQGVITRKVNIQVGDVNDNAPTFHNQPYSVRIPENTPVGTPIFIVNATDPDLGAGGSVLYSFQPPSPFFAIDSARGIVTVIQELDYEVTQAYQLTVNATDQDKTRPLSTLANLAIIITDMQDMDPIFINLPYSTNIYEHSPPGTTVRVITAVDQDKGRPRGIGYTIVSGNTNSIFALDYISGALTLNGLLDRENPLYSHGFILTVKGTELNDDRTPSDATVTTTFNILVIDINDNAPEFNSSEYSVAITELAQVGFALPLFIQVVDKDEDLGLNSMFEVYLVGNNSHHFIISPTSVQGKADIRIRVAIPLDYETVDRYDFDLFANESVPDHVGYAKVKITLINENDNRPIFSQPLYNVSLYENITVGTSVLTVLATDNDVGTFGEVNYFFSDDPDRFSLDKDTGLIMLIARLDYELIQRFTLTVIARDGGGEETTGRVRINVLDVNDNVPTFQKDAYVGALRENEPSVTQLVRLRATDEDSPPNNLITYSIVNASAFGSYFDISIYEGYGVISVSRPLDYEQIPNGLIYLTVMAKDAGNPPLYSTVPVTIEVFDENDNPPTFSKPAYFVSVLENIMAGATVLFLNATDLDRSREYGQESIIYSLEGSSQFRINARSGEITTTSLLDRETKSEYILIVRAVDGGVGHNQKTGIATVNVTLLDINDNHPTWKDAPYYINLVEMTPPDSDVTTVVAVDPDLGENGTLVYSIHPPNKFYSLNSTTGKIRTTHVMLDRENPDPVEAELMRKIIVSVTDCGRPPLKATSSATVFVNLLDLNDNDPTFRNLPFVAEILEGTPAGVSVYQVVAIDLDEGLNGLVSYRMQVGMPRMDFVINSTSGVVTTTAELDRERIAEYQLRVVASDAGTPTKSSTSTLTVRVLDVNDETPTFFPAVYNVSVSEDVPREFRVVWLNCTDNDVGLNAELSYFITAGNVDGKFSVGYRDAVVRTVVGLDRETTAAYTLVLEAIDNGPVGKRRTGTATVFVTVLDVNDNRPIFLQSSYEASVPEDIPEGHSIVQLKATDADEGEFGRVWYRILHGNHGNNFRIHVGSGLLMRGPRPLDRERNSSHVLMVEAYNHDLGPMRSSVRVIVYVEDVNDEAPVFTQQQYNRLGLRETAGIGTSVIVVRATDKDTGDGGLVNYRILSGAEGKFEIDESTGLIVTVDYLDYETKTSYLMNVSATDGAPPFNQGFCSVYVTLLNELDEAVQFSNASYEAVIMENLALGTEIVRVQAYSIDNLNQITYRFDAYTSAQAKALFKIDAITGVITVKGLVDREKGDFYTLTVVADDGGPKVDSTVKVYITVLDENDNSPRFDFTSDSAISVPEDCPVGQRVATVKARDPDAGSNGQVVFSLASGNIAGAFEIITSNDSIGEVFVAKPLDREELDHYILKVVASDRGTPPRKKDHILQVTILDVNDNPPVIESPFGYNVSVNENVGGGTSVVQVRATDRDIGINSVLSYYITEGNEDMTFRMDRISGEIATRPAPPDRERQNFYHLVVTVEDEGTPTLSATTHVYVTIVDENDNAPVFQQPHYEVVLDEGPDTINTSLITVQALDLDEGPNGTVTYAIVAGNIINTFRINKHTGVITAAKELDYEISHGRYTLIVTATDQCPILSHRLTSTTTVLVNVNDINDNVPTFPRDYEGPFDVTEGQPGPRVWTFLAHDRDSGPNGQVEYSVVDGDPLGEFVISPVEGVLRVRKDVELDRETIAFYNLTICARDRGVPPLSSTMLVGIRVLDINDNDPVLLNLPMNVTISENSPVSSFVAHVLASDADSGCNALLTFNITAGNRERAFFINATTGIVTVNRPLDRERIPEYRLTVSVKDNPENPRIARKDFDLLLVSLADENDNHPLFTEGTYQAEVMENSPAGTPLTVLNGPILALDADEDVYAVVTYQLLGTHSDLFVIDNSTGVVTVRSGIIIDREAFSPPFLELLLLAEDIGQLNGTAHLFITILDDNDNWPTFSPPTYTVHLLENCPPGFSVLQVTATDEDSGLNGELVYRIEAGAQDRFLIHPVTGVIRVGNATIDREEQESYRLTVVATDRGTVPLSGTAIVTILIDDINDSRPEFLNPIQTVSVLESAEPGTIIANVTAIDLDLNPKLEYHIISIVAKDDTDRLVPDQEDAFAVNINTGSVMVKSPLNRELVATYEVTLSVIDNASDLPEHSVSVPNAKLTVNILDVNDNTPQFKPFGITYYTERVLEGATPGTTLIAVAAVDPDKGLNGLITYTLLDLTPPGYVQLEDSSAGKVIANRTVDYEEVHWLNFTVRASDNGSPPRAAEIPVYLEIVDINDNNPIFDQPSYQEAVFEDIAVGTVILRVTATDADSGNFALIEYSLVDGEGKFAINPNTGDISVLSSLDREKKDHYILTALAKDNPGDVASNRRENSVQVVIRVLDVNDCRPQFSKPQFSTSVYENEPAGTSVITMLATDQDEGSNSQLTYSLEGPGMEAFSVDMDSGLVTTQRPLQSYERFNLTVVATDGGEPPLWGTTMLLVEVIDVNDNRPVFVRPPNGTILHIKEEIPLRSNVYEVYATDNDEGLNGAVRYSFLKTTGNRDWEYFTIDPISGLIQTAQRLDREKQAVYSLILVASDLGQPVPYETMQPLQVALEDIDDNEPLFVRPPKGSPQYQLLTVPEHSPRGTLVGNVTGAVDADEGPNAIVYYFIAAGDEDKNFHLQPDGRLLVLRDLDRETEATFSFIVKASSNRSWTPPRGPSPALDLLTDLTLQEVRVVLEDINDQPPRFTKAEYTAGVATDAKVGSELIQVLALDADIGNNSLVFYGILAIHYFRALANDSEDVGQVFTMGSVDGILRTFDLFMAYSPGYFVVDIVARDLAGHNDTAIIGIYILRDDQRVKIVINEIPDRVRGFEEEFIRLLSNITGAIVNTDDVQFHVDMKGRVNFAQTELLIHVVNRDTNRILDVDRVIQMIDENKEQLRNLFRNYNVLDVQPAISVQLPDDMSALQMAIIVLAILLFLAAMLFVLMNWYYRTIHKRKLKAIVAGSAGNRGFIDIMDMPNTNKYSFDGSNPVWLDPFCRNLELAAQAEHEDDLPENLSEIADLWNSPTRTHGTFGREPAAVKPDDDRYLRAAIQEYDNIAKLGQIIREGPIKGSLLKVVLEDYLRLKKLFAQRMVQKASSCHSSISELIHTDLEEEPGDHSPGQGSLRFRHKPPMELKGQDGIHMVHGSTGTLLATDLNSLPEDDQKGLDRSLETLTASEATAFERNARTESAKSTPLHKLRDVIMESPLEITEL

| Substance | effect of a mutation on the interaction (pcd15_mouse Pcdh15) | effect of a mutation on the interaction (Cdh23, Q99PF4-1 [1]) | effect of a mutation on the interaction (Cdh23, Q99PF4-1 [2]) |
| --- | --- | --- | --- |
| Cadherin-23 (Mus musculus), Q99PF4-1 D124G | decreasing interaction strength |  |  |
| Cadherin-23 (Mus musculus), Q99PF4-1 L168G | decreasing interaction strength |  |  |
| Protocadherin-15 (Mus musculus), Q99PJ1 I48A |  | decreasing interaction strength |  |
| Protocadherin-15 (Mus musculus), Q99PJ1 R139G |  | decreasing interaction strength | disrupting interaction strength |
